Source: publication PMC9482650, “Quantitative fragmentomics allow affinity mapping of interactomes” (Nature Communications, 2022)

T1: PTPN13_1, Q12923
T1 sequence (Q12923 1088-1188, limits assumed, looked up): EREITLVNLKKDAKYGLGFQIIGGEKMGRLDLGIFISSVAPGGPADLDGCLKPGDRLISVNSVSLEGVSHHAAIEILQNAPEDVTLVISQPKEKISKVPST

T2: APBA3_1, O96018
T2 sequence (O96018 389-490, limits assumed, looked up): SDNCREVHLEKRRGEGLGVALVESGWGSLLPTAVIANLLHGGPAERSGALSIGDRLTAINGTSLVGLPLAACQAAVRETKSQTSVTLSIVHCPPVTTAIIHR

T3: SHANK1, Q9Y566
T3 sequence (Q9Y566 658-767, limits assumed, looked up): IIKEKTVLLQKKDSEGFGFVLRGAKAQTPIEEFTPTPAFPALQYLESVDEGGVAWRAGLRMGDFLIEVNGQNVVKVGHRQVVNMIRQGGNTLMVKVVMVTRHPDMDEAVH

T4: MPDZ_12, O75970
T4 sequence (O75970 1857-1958, limits assumed, looked up): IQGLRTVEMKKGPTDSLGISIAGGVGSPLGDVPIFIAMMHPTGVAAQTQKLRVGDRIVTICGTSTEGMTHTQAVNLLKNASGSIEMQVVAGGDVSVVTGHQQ

T5: GRIP1_7, Q9Y3R0
T5 sequence (Q9Y3R0 999-1096, limits assumed, looked up): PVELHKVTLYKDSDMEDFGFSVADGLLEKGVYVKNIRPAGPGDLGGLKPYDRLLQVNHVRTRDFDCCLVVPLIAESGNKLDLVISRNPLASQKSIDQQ

T6: GRIP1_3, Q9Y3R0
T6 sequence (Q9Y3R0 247-346, limits assumed, looked up): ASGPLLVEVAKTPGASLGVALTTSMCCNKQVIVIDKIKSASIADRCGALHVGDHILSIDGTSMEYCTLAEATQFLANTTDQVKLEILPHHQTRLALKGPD

T7: DFNB31_3, Q9P202
T7 sequence (Q9P202 811-907, limits assumed, looked up): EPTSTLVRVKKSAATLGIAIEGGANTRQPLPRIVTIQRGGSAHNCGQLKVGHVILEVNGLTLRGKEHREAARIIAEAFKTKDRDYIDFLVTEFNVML

T8: DFNB31_1, Q9P202
T8 sequence (Q9P202 135-233, limits assumed, looked up): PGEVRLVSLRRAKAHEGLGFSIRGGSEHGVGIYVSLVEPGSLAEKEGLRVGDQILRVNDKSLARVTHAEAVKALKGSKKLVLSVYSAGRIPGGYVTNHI

T9: MPP6, Q9NZW5
T9 sequence (Q9NZW5 125-219, limits assumed, looked up): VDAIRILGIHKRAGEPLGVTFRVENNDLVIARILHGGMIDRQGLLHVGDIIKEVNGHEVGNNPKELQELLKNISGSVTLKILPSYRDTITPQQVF

T10: SYNJ2BP, P57105
T10 sequence (P57105 8-110, limits assumed, looked up): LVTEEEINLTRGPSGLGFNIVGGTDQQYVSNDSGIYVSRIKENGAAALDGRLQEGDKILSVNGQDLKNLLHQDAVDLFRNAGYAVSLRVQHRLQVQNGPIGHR

T11: APBA1_2, Q02410
T11 sequence (Q02410 742-832, limits assumed, looked up): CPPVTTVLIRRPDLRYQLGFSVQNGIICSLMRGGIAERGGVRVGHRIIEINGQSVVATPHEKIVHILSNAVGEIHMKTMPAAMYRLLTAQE

T12: PDZD7_3, Q9H5P4
T12 sequence (Q9H5P4 857-944, limits assumed, looked up): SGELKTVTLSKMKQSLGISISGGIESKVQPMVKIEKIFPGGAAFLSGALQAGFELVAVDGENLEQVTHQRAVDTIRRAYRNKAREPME

B1: SLC1A7, O00341 (peptide)
chain: IQISELETNV
B2: CD226, Q15762 (peptide)
chain: TFSRRPKTRV
B3: TYRO3, Q06418 (peptide)
chain: QQGLLPHSSC

Biological target: PDZRN4_1, Q6ZMN7
Test: holdup assay
Set-up: key: below the threshold = too weak to quantify, mostly under pKd 3.1 to 4
Conditions: plain residues with an end cap or a label only (N-terminal biotin on a linker: ado-ado)

PDZRN4_1, Q6ZMN7, sequence (Q6ZMN7 213-318): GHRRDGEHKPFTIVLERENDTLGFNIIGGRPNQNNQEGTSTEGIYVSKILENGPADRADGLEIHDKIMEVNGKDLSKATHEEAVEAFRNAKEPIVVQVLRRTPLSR

| Binder | pKd |
| --- | --- |
| B1 | 4.03 |
| B2 | below the threshold |
| B3 | below the threshold |

Biological target: DLG1_1, Q12959
Test: holdup assay
Set-up: key: below the threshold = too weak to quantify, mostly under pKd 3.1 to 4
Conditions: plain residues with an end cap or a label only (N-terminal biotin on a linker: ado-ado)

| Binder | pKd |
| --- | --- |
| B1 | 4.34 |
| B2 | below the threshold |
| B3 | below the threshold |

Biological target: T1, PTPN13_1, Q12923
Test: holdup assay
Set-up: key: below the threshold = too weak to quantify, mostly under pKd 3.1 to 4
Conditions: plain residues with an end cap or a label only (N-terminal biotin on a linker: ado-ado)

| Binder | pKd |
| --- | --- |
| B1 | below the threshold |
| B2 | below the threshold |
| B3 | below the threshold |

Biological target: AHNAK1, Q09666
Test: holdup assay
Set-up: key: below the threshold = too weak to quantify, mostly under pKd 3.1 to 4
Conditions: plain residues with an end cap or a label only (N-terminal biotin on a linker: ado-ado)

AHNAK1, Q09666, sequence (Q09666 4-100): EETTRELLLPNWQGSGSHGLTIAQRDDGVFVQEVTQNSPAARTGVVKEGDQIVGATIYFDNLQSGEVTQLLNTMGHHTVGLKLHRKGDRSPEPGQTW

| Binder | pKd |
| --- | --- |
| B1 | below the threshold |
| B2 | below the threshold |
| B3 | below the threshold |

Biological target: T2, APBA3_1, O96018
Test: holdup assay
Set-up: key: below the threshold = too weak to quantify, mostly under pKd 3.1 to 4
Conditions: plain residues with an end cap or a label only (N-terminal biotin on a linker: ado-ado)

| Binder | pKd |
| --- | --- |
| B1 | below the threshold |
| B2 | below the threshold |
| B3 | below the threshold |

Biological target: Inadl_8, Q8NI35
Test: holdup assay
Set-up: key: below the threshold = too weak to quantify, mostly under pKd 3.1 to 4
Conditions: plain residues with an end cap or a label only (N-terminal biotin on a linker: ado-ado)

Inadl_8, Q8NI35, sequence (Q8NI35 1425-1530): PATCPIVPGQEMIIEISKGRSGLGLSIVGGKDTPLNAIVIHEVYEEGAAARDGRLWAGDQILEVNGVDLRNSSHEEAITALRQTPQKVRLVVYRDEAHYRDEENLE

| Binder | pKd |
| --- | --- |
| B1 | below the threshold |
| B2 | 4.6 |
| B3 | 4.08 |

Biological target: T3, SHANK1, Q9Y566
Test: holdup assay
Set-up: key: below the threshold = too weak to quantify, mostly under pKd 3.1 to 4
Conditions: plain residues with an end cap or a label only (N-terminal biotin on a linker: ado-ado)

| Binder | pKd |
| --- | --- |
| B1 | 3.94 |
| B2 | 4.06 |
| B3 | below the threshold |

Biological target: DLG4_2, P78352
Test: holdup assay
Set-up: key: below the threshold = too weak to quantify, mostly under pKd 3.1 to 4
Conditions: plain residues with an end cap or a label only (N-terminal biotin on a linker: ado-ado)

DLG4_2, P78352, sequence (P78352 155-259): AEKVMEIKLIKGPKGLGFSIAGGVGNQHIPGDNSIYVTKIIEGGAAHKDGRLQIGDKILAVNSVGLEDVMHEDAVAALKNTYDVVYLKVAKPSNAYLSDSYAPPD

| Binder | pKd |
| --- | --- |
| B1 | 4.67 |
| B2 | 3.56 |
| B3 | below the threshold |

Biological target: DLG4_3, P78352
Test: holdup assay
Set-up: key: below the threshold = too weak to quantify, mostly under pKd 3.1 to 4
Conditions: plain residues with an end cap or a label only (N-terminal biotin on a linker: ado-ado)

DLG4_3, P78352, sequence (P78352 306-403): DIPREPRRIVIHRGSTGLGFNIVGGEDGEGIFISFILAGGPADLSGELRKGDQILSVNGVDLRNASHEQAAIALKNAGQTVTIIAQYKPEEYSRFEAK

| Binder | pKd |
| --- | --- |
| B1 | below the threshold |
| B2 | 3.84 |
| B3 | below the threshold |

Biological target: GRID2IP_1, A4D2P6
Test: holdup assay
Set-up: key: below the threshold = too weak to quantify, mostly under pKd 3.1 to 4
Conditions: plain residues with an end cap or a label only (N-terminal biotin on a linker: ado-ado)

GRID2IP_1, A4D2P6, sequence (A4D2P6 1-87): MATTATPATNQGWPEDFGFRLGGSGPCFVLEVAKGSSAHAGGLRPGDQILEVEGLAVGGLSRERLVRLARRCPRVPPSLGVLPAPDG

| Binder | pKd |
| --- | --- |
| B1 | below the threshold |
| B2 | below the threshold |
| B3 | below the threshold |

Biological target: TJP1_3, Q07157
Test: holdup assay
Set-up: key: below the threshold = too weak to quantify, mostly under pKd 3.1 to 4
Conditions: plain residues with an end cap or a label only (N-terminal biotin on a linker: ado-ado)

TJP1_3, Q07157, sequence (Q07157 416-512): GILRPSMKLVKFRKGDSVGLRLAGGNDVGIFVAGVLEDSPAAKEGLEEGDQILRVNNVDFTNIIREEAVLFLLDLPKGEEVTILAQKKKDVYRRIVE

| Binder | pKd |
| --- | --- |
| B1 | below the threshold |
| B2 | below the threshold |
| B3 | below the threshold |

Biological target: MAGI1_2, Q96QZ7
Test: holdup assay
Set-up: key: below the threshold = too weak to quantify, mostly under pKd 3.1 to 4
Conditions: plain residues with an end cap or a label only (N-terminal biotin on a linker: ado-ado)

MAGI1_2, Q96QZ7, sequence (Q96QZ7 456-580): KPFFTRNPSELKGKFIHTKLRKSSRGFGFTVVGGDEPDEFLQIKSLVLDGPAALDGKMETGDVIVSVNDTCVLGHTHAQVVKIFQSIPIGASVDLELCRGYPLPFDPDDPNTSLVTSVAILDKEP

| Binder | pKd |
| --- | --- |
| B1 | below the threshold |
| B2 | 4.75 |
| B3 | below the threshold |

Biological target: GRID2IP_2, A4D2P6
Test: holdup assay
Set-up: key: below the threshold = too weak to quantify, mostly under pKd 3.1 to 4
Conditions: plain residues with an end cap or a label only (N-terminal biotin on a linker: ado-ado)

GRID2IP_2, A4D2P6, sequence (A4D2P6 272-370): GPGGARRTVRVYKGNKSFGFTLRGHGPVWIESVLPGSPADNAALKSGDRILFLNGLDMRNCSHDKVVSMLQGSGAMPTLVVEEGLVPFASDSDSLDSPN

| Binder | pKd |
| --- | --- |
| B1 | 3.49 |
| B2 | 4.16 |
| B3 | 3.75 |

Biological target: FRMPD2_3, Q68DX3
Test: holdup assay
Set-up: key: below the threshold = too weak to quantify, mostly under pKd 3.1 to 4
Conditions: plain residues with an end cap or a label only (N-terminal biotin on a linker: ado-ado)

FRMPD2_3, Q68DX3, sequence (Q68DX3 1073-1166): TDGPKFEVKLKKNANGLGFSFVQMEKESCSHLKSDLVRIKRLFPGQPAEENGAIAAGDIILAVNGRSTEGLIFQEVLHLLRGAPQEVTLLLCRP

| Binder | pKd |
| --- | --- |
| B1 | below the threshold |
| B2 | below the threshold |
| B3 | below the threshold |

Biological target: DLG5_1, Q8TDM6
Test: holdup assay
Set-up: key: below the threshold = too weak to quantify, mostly under pKd 3.1 to 4
Conditions: plain residues with an end cap or a label only (N-terminal biotin on a linker: ado-ado)

DLG5_1, Q8TDM6, sequence (Q8TDM6 617-713): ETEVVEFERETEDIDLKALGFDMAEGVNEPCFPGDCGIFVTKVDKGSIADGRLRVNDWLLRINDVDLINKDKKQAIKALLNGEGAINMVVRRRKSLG

| Binder | pKd |
| --- | --- |
| B1 | below the threshold |
| B2 | below the threshold |
| B3 | below the threshold |

Biological target: T4, MPDZ_12, O75970
Test: holdup assay
Set-up: key: below the threshold = too weak to quantify, mostly under pKd 3.1 to 4
Conditions: plain residues with an end cap or a label only (N-terminal biotin on a linker: ado-ado)

| Binder | pKd |
| --- | --- |
| B1 | below the threshold |
| B2 | below the threshold |
| B3 | 3.6 |

Biological target: T5, GRIP1_7, Q9Y3R0
Test: holdup assay
Set-up: key: below the threshold = too weak to quantify, mostly under pKd 3.1 to 4
Conditions: plain residues with an end cap or a label only (N-terminal biotin on a linker: ado-ado)

| Binder | pKd |
| --- | --- |
| B1 | below the threshold |
| B2 | below the threshold |
| B3 | below the threshold |

Biological target: NHERF2_2, Q15599
Test: holdup assay
Set-up: key: below the threshold = too weak to quantify, mostly under pKd 3.1 to 4
Conditions: plain residues with an end cap or a label only (N-terminal biotin on a linker: ado-ado)

NHERF2_2, Q15599, sequence (Q15599 142-238): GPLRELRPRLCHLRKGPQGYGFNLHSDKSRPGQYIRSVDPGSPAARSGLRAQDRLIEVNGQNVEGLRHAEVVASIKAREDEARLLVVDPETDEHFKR

| Binder | pKd |
| --- | --- |
| B1 | 3.56 |
| B2 | below the threshold |
| B3 | below the threshold |

Biological target: T6, GRIP1_3, Q9Y3R0
Test: holdup assay
Set-up: key: below the threshold = too weak to quantify, mostly under pKd 3.1 to 4
Conditions: plain residues with an end cap or a label only (N-terminal biotin on a linker: ado-ado)

| Binder | pKd |
| --- | --- |
| B1 | below the threshold |
| B2 | below the threshold |
| B3 | below the threshold |

Biological target: T7, DFNB31_3, Q9P202
Test: holdup assay
Set-up: key: below the threshold = too weak to quantify, mostly under pKd 3.1 to 4
Conditions: plain residues with an end cap or a label only (N-terminal biotin on a linker: ado-ado)

| Binder | pKd |
| --- | --- |
| B1 | below the threshold |
| B2 | below the threshold |
| B3 | 4.21 |

Biological target: T8, DFNB31_1, Q9P202
Test: holdup assay
Set-up: key: below the threshold = too weak to quantify, mostly under pKd 3.1 to 4
Conditions: plain residues with an end cap or a label only (N-terminal biotin on a linker: ado-ado)

| Binder | pKd |
| --- | --- |
| B1 | 4.19 |
| B2 | below the threshold |
| B3 | below the threshold |

Biological target: T9, MPP6, Q9NZW5
Test: holdup assay
Set-up: key: below the threshold = too weak to quantify, mostly under pKd 3.1 to 4
Conditions: plain residues with an end cap or a label only (N-terminal biotin on a linker: ado-ado)

| Binder | pKd |
| --- | --- |
| B1 | below the threshold |
| B2 | below the threshold |
| B3 | below the threshold |

Biological target: T10, SYNJ2BP, P57105
Test: holdup assay
Set-up: key: below the threshold = too weak to quantify, mostly under pKd 3.1 to 4
Conditions: plain residues with an end cap or a label only (N-terminal biotin on a linker: ado-ado)

| Binder | pKd |
| --- | --- |
| B1 | 4.56 |
| B2 | below the threshold |
| B3 | below the threshold |

Biological target: MAGI1_1, Q96QZ7
Test: holdup assay
Set-up: key: below the threshold = too weak to quantify, mostly under pKd 3.1 to 4
Conditions: plain residues with an end cap or a label only (N-terminal biotin on a linker: ado-ado)

MAGI1_1, Q96QZ7, sequence (Q96QZ7 1-106): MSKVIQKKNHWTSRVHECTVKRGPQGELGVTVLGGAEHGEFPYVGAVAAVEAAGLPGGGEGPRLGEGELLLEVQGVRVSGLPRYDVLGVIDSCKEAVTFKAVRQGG

| Binder | pKd |
| --- | --- |
| B1 | below the threshold |
| B2 | 3.62 |
| B3 | below the threshold |

Biological target: T11, APBA1_2, Q02410
Test: holdup assay
Set-up: key: below the threshold = too weak to quantify, mostly under pKd 3.1 to 4
Conditions: plain residues with an end cap or a label only (N-terminal biotin on a linker: ado-ado)

| Binder | pKd |
| --- | --- |
| B1 | 3.83 |
| B2 | 3.48 |
| B3 | below the threshold |

Biological target: T12, PDZD7_3, Q9H5P4
Test: holdup assay
Set-up: key: below the threshold = too weak to quantify, mostly under pKd 3.1 to 4
Conditions: plain residues with an end cap or a label only (N-terminal biotin on a linker: ado-ado)

| Binder | pKd |
| --- | --- |
| B1 | 4.85 |
| B2 | 4.5 |
| B3 | 3.9 |
